Reference: patent US20240216553A1, “DEVELOPMENT OF CD163 TARGETING AGENT FOR IMAGING AND THERAPY” (Washington University, priority 2022, published 2024)
Each block holds one molecule with its values, some of them ahead of it. Square brackets hold non-standard residues; d marks the D form. Ends that are not written are not given here. Peptide text beside a SMILES is read from it. * marks the point of attachment. X1 = O=C(O)CN1CCN(CC(=O)O)CCN(CC(=O)NCCN2C(=O)CC(*)C2=O)CCN(CC(=O)O)CC1

Experiments:
[1] = human, in vivo
Method: Translation of [^64Cu]-DOTA-ECL1i for human Imaging. Animal toxicity studies with non-radioactive Cu-DOTA-ECL1i, dosimetry using [^64Cu]-DOTA-ECL1i in naïve mice were performed and submitted the exploratory investigative new drug (eIND) application to US Food Drug Administration (FDA). Following approvals from FDA, Washington University Radioactive Drug Research Committee (RDRC) and Institutional Review Board (IRB), the human dosimetry studied in six healthy volunteers (3 males, 3 females) who were injected with [^64Cu]-DOTA-ECL1i (5.2 mCi-10.4 mCi) and scanned at 15-30 min, 2-4 h, 20 h, and 44 h post injection was initiated. […] Approximately 80% of the activity was excreted in the urine within 2-4 hours after injection. […] The gender average Effective Dose was 0.064±0.012 rem/mCi (0.073 rem/mCi for females and 0.056 rem/mCi for the males). The critical organ for both genders was the urinary bladder wall, with the highest average estimated dose derived from the female model at 0.45 rad/mCi. Therefore, a dose of 8-10 mCi was injected to each patient in the HNSCC patient studies.

[2] = target: T1, recombinant human CCR2 N-terminus protein (1-42 amino acids) (Homo sapiens, UniProt P41597); assay: Peptide ELISA of biotin-labelled peptides; type: binding; parameters: dose or concentration left out as unconfirmed; settings: n=3/group
T1 construct: recombinant human CCR2 N-terminus protein (1-42 amino acids)
T1 sequence (P41597 1-42): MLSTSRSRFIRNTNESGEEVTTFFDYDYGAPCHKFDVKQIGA
Method: Phage display screening and identification of new CCR2 binding peptides. Using a recombinant human CCR2 N-terminus protein (1-42 amino acids) with a glutathione s-transferase (GST) tag, phage display screening was performed using Ph.D.™-12 peptide library to identify sequences binding to CCR2. After three rounds of phage selections, 50 phages were selected to amplify in E. coli, titer, and for DNA sequencing. Enzyme-linked immunosorbent assay (ELISA) was performed with pre-selected phages and identified five peptide sequences showing potential binding to CCR2. These peptides conjugated with biotin labels were customized for further peptide ELISA assays. […] Therefore, these peptides were selected as CCR2 binding sequences to synthesize peptide-chelator conjugates. To further confirm the specific binding of these peptides, peptide docking studies were performed based on a crystal structure of CCR2 (PDB Id 6GPS) and receptor structures resulting from molecular dynamics simulations of CCR2 and endogenous ligand CCL2 complex using the program AutoDock CrankPep.

[3] = target: CCR2 (human, on THP-1 cells and in human HNSCC tissue) (human) (UniProt P41597); assay: in vitro binding assay using THP-1 cells (competitive receptor binding with the non-radioactive counterpart, per paragraph 179)
[4] = target: T2, CD163 (human, on CD163 overexpressing U87 cells and in human carotid endarterectomy tissue) (human, UniProt Q86VB7 42-1156); assay: competitive cell binding on U87 cells overexpressing CD163; cold ICT-01 displaces ^64Cu-ICT-01
T2 construct: whole, on cells; also called CD163 receptor; human CD163
Method: The in vitro cell binding assay of ⁶⁴Cu-ICT-01 was performed in U87 cells, which overexpresses CD163 receptor.

[5] = target: T2, CD163 (human, on CD163 overexpressing …); assay: competitive cell binding on CD163 overexpressing U87 cells; 37 kBq ^64Cu-ICT-01 with non-radioactive ICT-01 at 10^-5-10^-10 M, gamma counting
Method: An in vitro cell binding assay of ⁶⁴Cu-ICT-01 to CD163 was performed with a CD163 overexpressing U87 cell line. U87 cells seeded on a 12-well tissue culture plate were incubated at room temperature with 37 kBq of ⁶⁴Cu-ICT-01 in the presence of non-radioactive ICT-01 in increasing concentrations (10⁻⁵-10⁻¹⁰ M) in binding media (Dulbecco's Modified Eagle Medium (DMEM): 25 mM HEPES, 0.2% bovine serum albumin (BSA), and 0.3 mM 1,10-phenanthroline). The reaction media was aspirated after incubation. Cells were rinsed with 0.8 mL of ice-cold pH 7.4, 0.2% BSA/0.01 M phosphate buffered saline (PBS) twice and lysed in 0.8 mL of 1 M NaOH for 10 min. Each well was rinsed with 0.8 mL of PBS (1×, pH7.4)/0.2% BSA, which was collected into a plastic tube. The radioactivity in tubes was measured with a gamma counter (Wallac Wizard 1480, Perkin Elmer). The half-maximal inhibitory concentration (IC₅₀) for ⁶⁴Cu-ICT-01 was calculated using the GraphPad Prism (10.0.2).

T2 sequence (Q86VB7 42-1156): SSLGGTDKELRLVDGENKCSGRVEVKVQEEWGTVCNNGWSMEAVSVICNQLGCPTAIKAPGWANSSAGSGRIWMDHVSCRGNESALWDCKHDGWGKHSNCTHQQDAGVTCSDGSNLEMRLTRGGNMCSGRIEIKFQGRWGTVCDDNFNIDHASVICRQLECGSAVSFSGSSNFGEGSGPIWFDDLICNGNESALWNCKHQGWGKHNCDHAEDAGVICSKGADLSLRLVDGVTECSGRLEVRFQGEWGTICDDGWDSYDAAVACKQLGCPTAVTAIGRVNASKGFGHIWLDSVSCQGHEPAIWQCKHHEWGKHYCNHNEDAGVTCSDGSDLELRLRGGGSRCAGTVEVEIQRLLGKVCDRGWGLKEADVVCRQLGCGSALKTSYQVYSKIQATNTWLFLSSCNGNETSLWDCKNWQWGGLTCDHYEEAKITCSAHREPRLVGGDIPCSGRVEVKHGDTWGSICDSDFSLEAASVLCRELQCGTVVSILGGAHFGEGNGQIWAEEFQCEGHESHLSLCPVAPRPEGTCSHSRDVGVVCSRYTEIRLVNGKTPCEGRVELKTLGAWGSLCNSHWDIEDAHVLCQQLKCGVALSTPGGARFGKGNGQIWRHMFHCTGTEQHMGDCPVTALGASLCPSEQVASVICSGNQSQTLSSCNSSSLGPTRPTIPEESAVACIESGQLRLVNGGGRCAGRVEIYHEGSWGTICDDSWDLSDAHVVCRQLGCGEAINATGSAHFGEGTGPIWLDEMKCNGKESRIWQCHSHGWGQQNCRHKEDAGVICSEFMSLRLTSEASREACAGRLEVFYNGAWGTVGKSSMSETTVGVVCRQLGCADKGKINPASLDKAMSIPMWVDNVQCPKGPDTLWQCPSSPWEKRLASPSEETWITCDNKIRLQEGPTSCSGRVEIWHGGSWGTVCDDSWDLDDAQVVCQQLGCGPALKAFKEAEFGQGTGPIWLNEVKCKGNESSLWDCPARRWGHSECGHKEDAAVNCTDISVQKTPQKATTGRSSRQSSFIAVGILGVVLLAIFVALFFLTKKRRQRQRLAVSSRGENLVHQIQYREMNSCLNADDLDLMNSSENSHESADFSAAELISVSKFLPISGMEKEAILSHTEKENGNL

binding to CCR2 N-terminus protein compared to GST tag alone and BSA [2]: significantly higher binding
Molecule: HWKWLKPWAVNT [P15]

binding to CCR2 N-terminus protein compared to GST tag alone and BSA [2]: significantly higher binding
Molecule: LIPAPGGTPRAG [P21]

binding to CCR2 N-terminus protein compared to GST tag alone and BSA [2]: significantly higher binding
Molecule: VDDHYGTIVRNG [P08]

Continued, molecule first:

Molecule: CC(C)C[C@@H](N)C(=O)NCC(=O)N[C@@H](C(=O)N[C@H](Cc1ccccc1)C(=O)N[C@H](CC(C)C)C(=O)N[C@H](CCCCN)C(=O)N[C@H](CSC1CC(=O)N(CCNC(=O)CN2CCN(CC(=O)O)CCN(CC(=O)O)CCN(CC(=O)O)CC2)C1=O)C(=O)O)[C@H](C)O (stereo partly drawn) [[^64Cu]-DOTA-ECL1i, metal not drawn] (H-[dL]G[dT][dF][dL][dK][dC](X1)-OH; N-terminus and C-terminus assumed)
Effective Dose, females [1]: 0.073 rem/mCi
Effective Dose, males [1]: 0.056 rem/mCi
gender average Effective Dose [1]: 0.064±0.012 rem/mCi
highest average estimated dose, urinary bladder wall (critical organ) [1]: 0.45 rad/mCi

Molecule: [^64Cu]-DOTA-ECL1i (peptide)
IC50 [3]: 58.3 nM

B1: ICT-01 (non-radioactive) (peptide)
peptide: WFWNHGWQWSSK
modifications: not fully specified
notes: also called non-radioactive ICT-01; CD163 targeting peptide ICT-01
IC50 [4]: 26.8 nM
IC50 [5]: 14.4 nM
